Biological target: Crassostrea gigas GABARAPL2, Flag-tagged (Crassostrea gigas)
Assay: co-IP

- fold intensity of the co-IP against the other three Atg8 family members: 4.4 fold
Substance: Crassostrea gigas starch-binding domain-containing protein 1 (STBD1), HA-tagged (natural protein)

Source: PMC12913940
